# Measured values taken from US20240294622A1 (SUZHOU TRANSCENTA THERAPEUTICS, published 2024).
# T1: HGREM1-His (ACRO) (human, UniProt O60565 25-184)
# T1 construct: Lys25-Asp184 of NP_037504 with C-terminal polyhistidine tag (ACRO GR1-H52H3); they are put here; also called hGREM1 (ACRO); human gremlin (ACRO)
# T1 sequence: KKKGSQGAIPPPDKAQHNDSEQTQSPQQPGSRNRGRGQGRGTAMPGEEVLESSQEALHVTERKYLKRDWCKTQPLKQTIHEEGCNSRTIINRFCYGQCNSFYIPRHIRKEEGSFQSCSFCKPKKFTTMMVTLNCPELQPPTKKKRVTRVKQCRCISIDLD
# T2: DAN-his (Sinobiological) (human, UniProt P41271 17-181, limits assumed)
# T2 construct: also called DAN (Sinobiological); human DAN-his
# T2 sequence (looked up): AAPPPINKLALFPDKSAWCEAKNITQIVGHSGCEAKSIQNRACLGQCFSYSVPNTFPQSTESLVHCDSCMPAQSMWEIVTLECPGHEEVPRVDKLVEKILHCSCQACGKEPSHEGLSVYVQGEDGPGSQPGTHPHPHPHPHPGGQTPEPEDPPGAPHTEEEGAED
# T3: Mouse Gremlin-His (R&D) (mouse, UniProt O70326 25-184)
# T3 construct: Lys25-Asp184 with 10xHis, R&D 956-GR; also called mouse gremlin (R&D); mGREM1
# T3 sequence: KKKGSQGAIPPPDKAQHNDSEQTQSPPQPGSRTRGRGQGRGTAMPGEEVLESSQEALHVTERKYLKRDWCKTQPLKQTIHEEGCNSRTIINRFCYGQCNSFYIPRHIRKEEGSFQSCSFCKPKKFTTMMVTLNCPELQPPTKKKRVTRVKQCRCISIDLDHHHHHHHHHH
# Molecular target: T1, HGREM1-His (ACRO)
# Test: ELISA, binding to hGremlin-his
row,Binder,EC50
1,"Hu14E3_HbLa (antibody, IgG1, V domains shown, humanized) VH: QIQLVQSGSELKKPGASVKVSCKASGYTFTTYGMAWMRQAPGQGLEWMGWINTLSGEPTYADDFKGRFAFSLDTSVSTAYLQISSLKAEDTAVYYCAREPMDYWGQGTMVTVSS VL: DVVMTQSPLSLPVTLGQPASISCKSSQSLLDSDGKTYLSWLQQRPGQSPRRLIYLVSKLDSGVPDRFSGSGSGTDFTLKISRVEAEDVGVYYCWQGAHFPLTFGQGTKLEIK",0.006 µg/mL
2,"Hu14E3_HaLb (antibody, IgG1, V domains shown, humanized) VH: QVQLVQSGSELKKPGASVKVSCKASGYTFTTYGMAWMRQAPGQGLEWMGWINTLSGEPTYADDFKGRFVFSLDTSVSTAYLQISSLKAEDTAVYYCAREPMDYWGQGTMVTVSS VL: DVVMTQSPLSLPVTLGQPASISCKSSQSLLDSDGKTYLSWLQQRPGQSPRRLISLVSKLDSGVPDRFSGSGSGTDFTLKISRVEAEDVGVYYCWQGAHFPLTFGQGTKLEIK",0.0056 µg/mL
3,"Hu14E3_HbLb (antibody, IgG1, V domains shown, humanized) VH: QIQLVQSGSELKKPGASVKVSCKASGYTFTTYGMAWMRQAPGQGLEWMGWINTLSGEPTYADDFKGRFAFSLDTSVSTAYLQISSLKAEDTAVYYCAREPMDYWGQGTMVTVSS VL: DVVMTQSPLSLPVTLGQPASISCKSSQSLLDSDGKTYLSWLQQRPGQSPRRLISLVSKLDSGVPDRFSGSGSGTDFTLKISRVEAEDVGVYYCWQGAHFPLTFGQGTKLEIK",0.0062 µg/mL
4,"Hu14E3_HcLa (antibody, IgG1, V domains shown, humanized) VH: QIQLVQSGSELKKPGASVKVSCKASGSTFTTYGMAWMKQAPGQGLTWMGWINTLSGEPTYADDFKGRFAFSLDTSVSTAYLQISSLKAEDTAVYYCAREPMDYWGQGTMVTVSS VL: DVVMTQSPLSLPVTLGQPASISCKSSQSLLDSDGKTYLSWLQQRPGQSPRRLIYLVSKLDSGVPDRFSGSGSGTDFTLKISRVEAEDVGVYYCWQGAHFPLTFGQGTKLEIK",0.0066 µg/mL
5,"Hu14E3_HcLb (antibody, IgG1, V domains shown, humanized) VH: QIQLVQSGSELKKPGASVKVSCKASGSTFTTYGMAWMKQAPGQGLTWMGWINTLSGEPTYADDFKGRFAFSLDTSVSTAYLQISSLKAEDTAVYYCAREPMDYWGQGTMVTVSS VL: DVVMTQSPLSLPVTLGQPASISCKSSQSLLDSDGKTYLSWLQQRPGQSPRRLISLVSKLDSGVPDRFSGSGSGTDFTLKISRVEAEDVGVYYCWQGAHFPLTFGQGTKLEIK",0.0061 µg/mL
6,"Hu22F1_HcLa (antibody, V domains shown) VH: QAQLVQSGAEVKKPGASVKVSCKASGYSFTDYYMNWVRQAPGQGLEWMGDINPKDGDSGYSHKFKGRVTLTVDKSTSTVYMELRSLRSEDTAVYYCASGFTTVVARGDYWGQGTTVTVSS VL: DVVMTQSPLSLPVTLGQPASISCKSSQSLLDSDGKTYLNWLQQRPGQSPRRLIYLVSKLDSGVPDRFSGSGSGTDFTLKISRVEAEDVGVYYCWQGTHFPYTFGGGTKVEIK",0.312 µg/mL
7,"Hu22F1_HaLa (antibody, V domains shown, humanized 22F1 variant) VH: QVQLVQSGAEVKKPGASVKVSCKASGYSFTDYYMNWVRQAPGQGLEWMGDINPKDGDSGYSHKFKGRVTMTRDTSTSTVYMELSSLRSEDTAVYYCASGFTTVVARGDYWGQGTTVTVSS VL: DVVMTQSPLSLPVTLGQPASISCKSSQSLLDSDGKTYLNWLQQRPGQSPRRLIYLVSKLDSGVPDRFSGSGSGTDFTLKISRVEAEDVGVYYCWQGTHFPYTFGGGTKVEIK",1.17 µg/mL
8,"Hu22F1_HaLb (antibody, V domains shown) VH: QVQLVQSGAEVKKPGASVKVSCKASGYSFTDYYMNWVRQAPGQGLEWMGDINPKDGDSGYSHKFKGRVTMTRDTSTSTVYMELSSLRSEDTAVYYCASGFTTVVARGDYWGQGTTVTVSS VL: DVVMTQSPLSLPVTLGQPASISCKSSQSLLDSDGKTYLNWLQQRPGQSPRRLIYLVSKLDSGFPDRFSGSGSGTDFTLKISRVEAEDVGVYYCWQGTHFPYTFGGGTKVEIK",0.117 µg/mL
9,"Hu22F1_HbLa (antibody, V domains shown) VH: QVQLVQSGAEVKKPGASVKVSCKASGYSFTDYYMNWVRQAPGQGLEWMGDINPKDGDSGYSHKFKGRVTMTVDKSTSTVYMELSSLRSEDTAVYYCASGFTTVVARGDYWGQGTTVTVSS VL: DVVMTQSPLSLPVTLGQPASISCKSSQSLLDSDGKTYLNWLQQRPGQSPRRLIYLVSKLDSGVPDRFSGSGSGTDFTLKISRVEAEDVGVYYCWQGTHFPYTFGGGTKVEIK",1.04 µg/mL
10,"Hu22F1_HbLb (antibody, V domains shown) VH: QVQLVQSGAEVKKPGASVKVSCKASGYSFTDYYMNWVRQAPGQGLEWMGDINPKDGDSGYSHKFKGRVTMTVDKSTSTVYMELSSLRSEDTAVYYCASGFTTVVARGDYWGQGTTVTVSS VL: DVVMTQSPLSLPVTLGQPASISCKSSQSLLDSDGKTYLNWLQQRPGQSPRRLIYLVSKLDSGFPDRFSGSGSGTDFTLKISRVEAEDVGVYYCWQGTHFPYTFGGGTKVEIK",0.094 µg/mL
11,"Hu22F1_HcLb (antibody, V domains shown) VH: QAQLVQSGAEVKKPGASVKVSCKASGYSFTDYYMNWVRQAPGQGLEWMGDINPKDGDSGYSHKFKGRVTLTVDKSTSTVYMELRSLRSEDTAVYYCASGFTTVVARGDYWGQGTTVTVSS VL: DVVMTQSPLSLPVTLGQPASISCKSSQSLLDSDGKTYLNWLQQRPGQSPRRLIYLVSKLDSGFPDRFSGSGSGTDFTLKISRVEAEDVGVYYCWQGTHFPYTFGGGTKVEIK",0.0435 µg/mL
12,"Hu22F1_HdLa (antibody, V domains shown) VH: QAQLVQSGAEVKKPGASVKVSCKASGYSFTDYYMNWLRQAPGQGLEWIGDINPKDGDSGYSHKFKGRATLTVDKSTSTVYMELRSLRSEDTAVYYCASGFTTVVARGDYWGQGTTVTVSS VL: DVVMTQSPLSLPVTLGQPASISCKSSQSLLDSDGKTYLNWLQQRPGQSPRRLIYLVSKLDSGVPDRFSGSGSGTDFTLKISRVEAEDVGVYYCWQGTHFPYTFGGGTKVEIK",0.0167 µg/mL
13,"Hu22F1_HdLb (antibody, V domains shown) VH: QAQLVQSGAEVKKPGASVKVSCKASGYSFTDYYMNWLRQAPGQGLEWIGDINPKDGDSGYSHKFKGRATLTVDKSTSTVYMELRSLRSEDTAVYYCASGFTTVVARGDYWGQGTTVTVSS VL: DVVMTQSPLSLPVTLGQPASISCKSSQSLLDSDGKTYLNWLQQRPGQSPRRLIYLVSKLDSGFPDRFSGSGSGTDFTLKISRVEAEDVGVYYCWQGTHFPYTFGGGTKVEIK",0.0103 µg/mL

# Molecular target: T1, HGREM1-His (ACRO)
# Test: ELISA on coated human Gremlin-his; unit from the axis Ab(nM); panel called FIG. 19C in the text
# Procedure: (§1) Clear polystyrene plates (BEAVER) were coated with 100 μl/well of a 0.5 μg/ml human gremlin (ACRO) and DAN (Sinobiological) in high pH coating buffer overnight at 4° C. Then the plates were washed once on an automatic plate washer using PBS+0.1% Tween 20 (Sigma). 100 μl of block solution consisting of PBS+1% BSA+1% normal goat serum+0.5% Tween 20 (Sigma) was added to each well and incubated at room temperature for 2 hours. Then 100 ul of antibodies (hybridoma or chimeric antibody 36F5, chimeric antibody 67G11, chimeric antibody 42B9) in antibody dilution buffer containing PBS+1% BSA+1% normal goat serum+0.01% Tween 20 starting from 2 μg/ml (13.33 nM) and then 4 fold serial dilution were added to each well of the plate and incubated for 1 hours at room temperature. Afterward the plates were washed three times with 200 ul of PBS+0.1% Tween20 followed by adding 100 μl/well 1:10000 Goat anti mouse IgG-HRP or mouse anti-human IgG-HRP (abcam), and incubate for 1 hour at room temperature. They were then washed 3× with PBS+0.1% Tween20. Finally, 100 μl/well of TMB (InnoReagents) was added to each well and after 2 minutes add 50 ul of stop solution to each well. The plates were read on a Multiscan FC microplate reader (Thermo Scientific) at 450 nm.
row,Binder,EC50
1,"chimeric antibody 42B9 (antibody, human IgG1, V domains shown) VH: QVQLQQSGAELARPGASVKLSCKASGYTFTSYGIGWVKQRTGQGLEWIGEIYPRSGNTYNNEKFKGKATLTADKSSRTVYMELRSLISEDSAVYFCAREGYSNNYYAMDYWGQGTSVTVFS VL: DVLMTQTPLSLPVSLGDQASISCISSQSLVHSNGNTYLEWYLQKPGLSPKLLIYKVSNRFSGVPDRLSGSGSGTDFTLRISRVEAEDLGVYYCFQGSHVPFTFGSGTKLEIK",0.0209 nM

# Molecular target: T1, HGREM1-His (ACRO)
# Test: ELISA, coated hGREM1 (ACRO)
# Procedure: (§2) Clear polystyrene plates (BEAVER) were coated with 100 μl/well of a […] hGREM1 (ACRO) and mouse gremlin (R&D) in high pH coating buffer overnight at 4° C. Then the plates were washed once on an automatic plate washer using PBS+0.1% Tween 20 (Sigma). 100 μl of block solution consisting of PBS+1% BSA+1% normal goat serum+0.5% Tween 20 (Sigma) was added to each well and incubated at room temperature for 2 hours. Then 100 μl of antibodies in antibody dilution buffer containing PBS+1% BSA+1% normal goat serum+0.01% Tween 20 starting from 2 μg/ml and then serial dilutions were added to each well of the plate and incubated for 1 hours at room temperature. Afterward the plates were washed three times with 200 μl of PBS+0.1% Tween20 followed by adding 100 μl/well 1:10000 Goat anti mouse IgG-HRP (abcam), and incubate for 1 hour at room temperature. They were then washed 3× with PBS+0.1% Tween20. Finally, 100 µl/well of TMB (Pierce) was added to each well and after several minutes add 50 μl of stop solution to each well. The plates were read on a Multiscan FC microplate reader (Thermo Scientific) at […].
row,Binder,EC50
1,"56C11 (antibody, V domains shown, mouse hybridoma antibody; also called hybridoma 56C11) VH: EVQLQQSGPELVKPGASVKISCKASGYTFTDFYMNWVKQSHGKSLEWIGDINPNNGGTSYNQKFKGKATLTVDKSSSTAYMELRSLTSEDSAVYYCARDPIYYDYDEVAYWGQGTLVTVSA VL: DVVMTQTPLSLPVSLGDQASISCRSSQSLVHSNGNTYLHWYLQKPGQSPKLLIYKVSNRFSGVPDRFSGSGSGTDFTLKISRVEAEDLGVYFCSQSTHVPLTFGAGTKLELK",0.0134 µg/mL

# Molecular target: T2, DAN-his (Sinobiological)
# Test: ELISA on coated DAN-his; unit from the axis Ab(nM); panel called FIG. 19C in the text
# Procedure: as §1
row,Binder,EC50
1,"chimeric antibody 42B9 (antibody, human IgG1, V domains shown) VH: QVQLQQSGAELARPGASVKLSCKASGYTFTSYGIGWVKQRTGQGLEWIGEIYPRSGNTYNNEKFKGKATLTADKSSRTVYMELRSLISEDSAVYFCAREGYSNNYYAMDYWGQGTSVTVFS VL: DVLMTQTPLSLPVSLGDQASISCISSQSLVHSNGNTYLEWYLQKPGLSPKLLIYKVSNRFSGVPDRLSGSGSGTDFTLRISRVEAEDLGVYYCFQGSHVPFTFGSGTKLEIK",0.0203 nM

# Molecular target: T3, Mouse Gremlin-His (R&D)
# Test: ELISA, coated mouse gremlin (R&D)
# Procedure: as §2
row,Binder,EC50
1,"56C11 (antibody, V domains shown, mouse hybridoma antibody; also called hybridoma 56C11) VH: EVQLQQSGPELVKPGASVKISCKASGYTFTDFYMNWVKQSHGKSLEWIGDINPNNGGTSYNQKFKGKATLTVDKSSSTAYMELRSLTSEDSAVYYCARDPIYYDYDEVAYWGQGTLVTVSA VL: DVVMTQTPLSLPVSLGDQASISCRSSQSLVHSNGNTYLHWYLQKPGQSPKLLIYKVSNRFSGVPDRFSGSGSGTDFTLKISRVEAEDLGVYFCSQSTHVPLTFGAGTKLELK",0.0172 µg/mL
